Experimental findings from the supplement of paper PMC10567573 are described below.

± gives the standard deviation.

The series in a line: protein stability index of a GFP-peptide fusion (GPS, HEK-293T) (PSI 1-6); higher = more stable. The note with it: c terminus: a fixed tail appended.
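Further: 24-mer peptide tiles fused after GFP, lentivirally expressed, FACS-sorted into six equal bins by GFP/DsRed ratio, decoded by Illumina sequencing, PSI is the read-weighted mean bin number.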

With YNVSPLSWNVAVKFLMARKFDVLR [PTPN9], the protein stability index was found to be 3.02 ± 0.62 (treatment: DMSO) and 2.46 ± 0.88 (treatment: MLN4924 1 uM, 8 h).

In the case of YPCVLATEGFTSGRHYWEVEVGDK [TRIM39], the protein stability index is, setting by setting: (treatment: DMSO) 2.59 ± 0.62; (treatment: MLN4924 1 uM, 8 h) 3.27 ± 0.68.

As to YPHFSHRPSTLQAASTPQAEEDWT [OAS1], the protein stability index by setting is: (treatment: DMSO) 4.52 ± 0.27; (treatment: MLN4924 1 uM, 8 h) 4.76 ± 0.23.

YPSVILRDPLQTDTLQNDYFAIKQ [ETS1]: the protein stability index by setting is: (treatment: DMSO) 3.1 ± 0.41; (treatment: MLN4924 1 uM, 8 h) 3.3 ± 0.21.

For YQAGKPDALTKLEQGEPLWTLEDE [ZNF649], the protein stability index runs as follows: (treatment: DMSO) 4.57 ± 0.17; (treatment: MLN4924 1 uM, 8 h) 4.6 ± 0.18.

For YQTEQSLRLLVESDINSIRRILDE [KRT34], the protein stability index is, setting by setting: (treatment: DMSO) 2.85 ± 0.18; (treatment: MLN4924 1 uM, 8 h) 2.97 ± 0.42.

Take YSDKNAKLTKESYPVVVAESMYGD [TENT5D]: the protein stability index (treatment: DMSO) amounted to 4.39 ± 0.054 and the protein stability index (treatment: MLN4924 1 uM, 8 h) was found to be 4.43 ± 0.22.

In the case of YSFYMLTCIDMDWKVLTWLRYTLW [HACD3], the protein stability index is, setting by setting: (treatment: DMSO) 2.63 ± 0.85; (treatment: MLN4924 1 uM, 8 h) 2.65 ± 0.36.

Regarding YSKFHGLEMCVDARTFGNEARFIR [KMT2E], the protein stability index (treatment: DMSO) came out at 2.21 ± 0.17 and the protein stability index (treatment: MLN4924 1 uM, 8 h) came out at 2.25 ± 0.22.

In the case of YSPSQYALQYAGDGSVLLIPRTMA [NFE2L1], the protein stability index by setting is: (treatment: DMSO) 2.11 ± 0.22; (treatment: MLN4924 1 uM, 8 h) 2.26 ± 0.22.

For the sequence YTEQELKPLTLEALGHLGNDDSAD [DLC1], the protein stability index (treatment: DMSO) was found to be 5.43 ± 0.12 and the protein stability index (treatment: MLN4924 1 uM, 8 h) came out at 5.43 ± 0.16.

With YTPDLPRADVDHAIEKAFQLWSNV [MMP1], the protein stability index runs as follows: (treatment: DMSO) 2.6 ± 0.73; (treatment: MLN4924 1 uM, 8 h) 2.86 ± 0.77.

Turning to YVPSSESFIIYLKNIVIADFVMSL [P2RY14], the protein stability index (treatment: DMSO) stood at 2.89 ± 0.96 and the protein stability index (treatment: MLN4924 1 uM, 8 h) is 2.74 ± 0.78.

As to YVYKAASEGKVLTLAALLLNRSES [FEM1B], the protein stability index is 2.78 ± 0.69 (treatment: DMSO) and 2.62 ± 0.56 (treatment: MLN4924 1 uM, 8 h).
